Target: T1, Gαo[P170R]^Gly92-GFP (human, UniProt P09471-1 1-354, P170R)
T1 construct: Pathogenic de novo variant found in two patients; also called Gαo[P170R]-GFP; P170R mutant; source: N2a cells, transfected, in lysate; not shown: GFP, internal (after residue 92), kept
Assay: co-IP; N2a cells co-transfected with Gαo-GFP constructs and mRFP-Gβ1/mRFP-Gγ3 (1:1:1) or HA-RGS19 (1:1); cleared lysates (20 mM Tris-HCl pH 8.0, 1% Triton X-100, 10% glycerol in PBS) incubated with GST-tagged anti-GFP nanobody, then Glutathione Sepharose 4B beads overnight at 4 °C; Western blot for GFP, mRFP and/or HA; quantification normalized to the precipitated Gαo-GFP
Settings: partners not purified

T1 sequence (P09471 whole entry P170R): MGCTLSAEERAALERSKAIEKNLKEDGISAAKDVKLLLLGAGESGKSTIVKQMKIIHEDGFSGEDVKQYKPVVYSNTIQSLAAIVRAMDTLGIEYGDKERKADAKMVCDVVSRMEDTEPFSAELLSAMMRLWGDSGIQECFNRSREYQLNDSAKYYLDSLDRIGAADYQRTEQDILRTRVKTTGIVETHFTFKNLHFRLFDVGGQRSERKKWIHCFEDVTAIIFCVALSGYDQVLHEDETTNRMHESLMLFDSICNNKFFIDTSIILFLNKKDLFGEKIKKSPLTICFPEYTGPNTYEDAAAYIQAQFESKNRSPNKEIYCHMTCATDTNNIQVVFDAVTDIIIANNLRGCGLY

fold reduction of co-precipitated RGS19 against wild-type Gαo-GFP: > 2 fold
B1: 3xHA-RGS19 (natural protein, UniProt P49795 1-217, looked up)
chain: MPTPHEAEKQITGPEEADRPPSMSSHDTASPAAPSRNPCCLCWCCCCSCSWNQERRRAWQASRESKLQPLPSCEVCATPSPEEVQSWAQSFDKLMHSPAGRSVFRAFLRTEYSEENMLFWLACEELKAEANQHVVDEKARLIYEDYVSILSPKEVSLDSRVREGINKKMQEPSAHTFDDAQLQIYTLMHRDSYPRFLSSPTYRALLLQGPSQSSSEA
notes: RGS19 (regulator of G-protein signaling 19); also called 3×HA-RGS19; RGS19 (tagged with 3 × HA); source: N2a cells, transfected, in lysate

Reference: article PMC10605901, “Clinical Cases and the Molecular Profiling of a Novel Childhood Encephalopathy-Causing GNAO1 Mutation P170R” (Cells, 2023)
